Target: T1, PP2Ac (Homo sapiens, UniProt P67775)
T1 construct: purchased Cayman Chemical 10011237
Assay: Phosphoproteome dephosphorylation assay of HeLa Kyoto lysate with recombinant PP2Ac (TMT phosphoproteomics)
Assay type: biochemical
Conditions: 1 µM recombinant phosphatase, 1 h at 30 °C, 20 nM Calyculin A, three replicates
Procedure: For phosphoproteomics, HeLa Kyoto cells were incubated with 20 nM Calyculin A (CST, #9902) for 10–15 min. This time point was determined empirically to yield maximal phosphatase inhibition without cells showing pleiotropic effects. Subsequently, cells were placed on ice and washed twice with cold PBS and scraped in lysis buffer (100 mM NaCl, 10 mM Tris, 0.1% IGEPAL, 1 mM EDTA, 1 mM EGTA, 20 nM Calyculin A, 1x cOmplete Mini protease inhibitor cocktail (Sigma), 1 mM DTT, 1 mM MnCl2, pH 7.5). After 10 pushes through an injection needle (21 G, BD), lysate was cleared from the insoluble fraction by centrifugation (10 min, 10^4 rcf, 4 °C). Protein concentration was then determined by a Bradford Assay and equal amounts of 1 mg total protein were incubated with recombinant PP1c/PP2Ac or buffer at a final phosphatase concentration of 1 µM in a total volume of 200 µL for 1 h at 30 °C. Lysates were then immediately placed on ice. PhosStop […] (Roche) was added and proteins were denatured by adding urea to a final concentration of 8 M taking into account the volume increase. Samples were then snap-frozen in liquid nitrogen for storage and subsequent MS analysis.
Treated lysates were reduced (10 mM DTT, 30 °C, 30 min) and alkylated (50 mM chloroacetamide, room temperature, 30 min, in the dark), and then diluted to 1.3 M urea using 40 mM Tris-HCl (pH 7.6). […]

T1 sequence (P67775 1-308 limits assumed): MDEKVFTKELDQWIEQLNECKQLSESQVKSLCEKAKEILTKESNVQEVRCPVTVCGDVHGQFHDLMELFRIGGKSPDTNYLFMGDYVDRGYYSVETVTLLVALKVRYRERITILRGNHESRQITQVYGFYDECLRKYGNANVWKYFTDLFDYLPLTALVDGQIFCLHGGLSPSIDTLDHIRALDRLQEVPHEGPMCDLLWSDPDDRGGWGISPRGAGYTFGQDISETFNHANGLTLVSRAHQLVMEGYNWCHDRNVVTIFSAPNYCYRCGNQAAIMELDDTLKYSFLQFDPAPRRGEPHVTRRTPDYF

- number of class I p-sites dephosphorylated by PP2A: 1840 p-sites
Substance: PP2Ac: His-tagged recombinant PPP2CA ΔL309, purchased from Cayman Chemical

From article PMC7367873, “Dissecting the sequence determinants for dephosphorylation by the catalytic subunits of phosphatases PP1 and PP2A” (Nature Communications, 2020)
